Laboratory results reported in US20150315621.

Biological target: Aspergillus terreus LovB: Lovastatin nonaketide synthase

B1: Aspergillus terreus LovG: Esterase (protein)
chain: HHHHHHMRYQASPALAKAPRALLCIHGAGCSPAIFRVQLSKLRAALREDFEFVYVTAPFPSSAGPGILPVFADLGPYYSWFESSSGNNNNGPSVGERLAAVHDPIRRTIVDWQTQHPHIPIVGAIGFSEGALVTTLLLWQQQMGRLPWLPRMSVAMLICPWYQDEASQYMRNEVMENHDDDHDSKDTEWQEELVIRIPTLHLQGRDDFALAGSKMLVARHFSPREAQVLEFAGQHQFPNRPRDVLEVINRFRKLCVTVQTLE
  offloaded aberrant products 8-10 from LovB in vitro in the absence of LovC (HPLC at 330 nm, LC-MS): Upon addition of LovG at equimolar concentration to LovB, the in vitro assay mixture turned significantly more yellow and the extract contained high amounts of offloaded products 8-10, in addition to 6 and 7
  turnover rate of dihydromonacolin L acid (2), in vitro with equimolar (10 µM) LovB, LovC and LovG: the turnover rate of dihydromonacolin L acid (2) was estimated to be ˜0.12 hour^-1
